# Assay results from patent publication US20250000991A1 (Eli Lilly, published 2025).
# Substitutions are numbered along the chain they refer to.
# T1: human nectin-4 on cells (human, UniProt Q96NY8 32-510)
# T1 construct: also called Nectin-4 receptor
# T1 sequence: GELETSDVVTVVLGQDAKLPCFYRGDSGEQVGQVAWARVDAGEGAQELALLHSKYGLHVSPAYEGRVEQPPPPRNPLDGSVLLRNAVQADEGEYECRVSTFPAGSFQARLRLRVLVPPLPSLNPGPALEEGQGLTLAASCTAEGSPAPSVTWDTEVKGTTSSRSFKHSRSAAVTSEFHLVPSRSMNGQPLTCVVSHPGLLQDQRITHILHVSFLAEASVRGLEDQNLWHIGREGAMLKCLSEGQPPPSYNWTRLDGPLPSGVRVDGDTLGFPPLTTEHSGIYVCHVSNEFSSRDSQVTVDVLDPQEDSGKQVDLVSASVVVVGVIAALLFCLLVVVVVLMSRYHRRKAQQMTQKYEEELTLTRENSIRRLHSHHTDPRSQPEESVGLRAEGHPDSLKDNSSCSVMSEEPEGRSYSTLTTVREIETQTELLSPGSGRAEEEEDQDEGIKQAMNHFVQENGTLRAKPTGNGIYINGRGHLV
# T2: recombinant HIS-tagged human nectin-4 (Acro Biosystems Cat. No. NE4-H52H3) (human, UniProt Q96NY8 32-349)
# T2 construct: Bought protein; not shown: HIS tag
# T2 sequence: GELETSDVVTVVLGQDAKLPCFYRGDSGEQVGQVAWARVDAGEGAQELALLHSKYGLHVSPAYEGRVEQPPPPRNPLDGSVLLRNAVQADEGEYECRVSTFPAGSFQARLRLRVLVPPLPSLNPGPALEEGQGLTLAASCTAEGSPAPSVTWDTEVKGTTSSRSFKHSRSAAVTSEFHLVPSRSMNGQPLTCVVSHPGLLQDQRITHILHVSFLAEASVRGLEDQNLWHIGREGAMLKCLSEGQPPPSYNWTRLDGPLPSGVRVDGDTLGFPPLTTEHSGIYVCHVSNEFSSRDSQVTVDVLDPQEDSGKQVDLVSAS
# T3: recombinant HIS-tagged cyno nectin-4 (Acro Biosystems Cat. No. NE4-C52H4) (cyno, UniProt A0A2K5WES1 32-349)
# T3 construct: Bought protein; HIS tag not described
# T3 sequence: T2 sequence with V39A, I230V
# T4: recombinant HIS-tagged rat nectin-4 (R&D Systems Cat. No. 9997-N4-050) (rat, UniProt D3ZET1 31-348)
# T4 construct: Bought protein; HIS tag not described
# T4 sequence: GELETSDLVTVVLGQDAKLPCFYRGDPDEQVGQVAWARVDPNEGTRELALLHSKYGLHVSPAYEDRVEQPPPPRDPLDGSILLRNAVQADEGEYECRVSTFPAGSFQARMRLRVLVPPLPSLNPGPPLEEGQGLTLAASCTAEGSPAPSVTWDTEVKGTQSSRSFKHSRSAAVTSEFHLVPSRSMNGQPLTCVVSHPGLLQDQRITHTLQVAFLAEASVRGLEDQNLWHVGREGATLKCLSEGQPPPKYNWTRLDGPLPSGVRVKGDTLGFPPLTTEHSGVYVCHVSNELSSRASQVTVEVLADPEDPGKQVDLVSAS
# T5: human Nectin-4-eGFP on T24 cells (clone 3) (human, UniProt Q96NY8 32-510)
# T5 sequence: T1 sequence
# B1: Ab2 (antibody, human IgG1, kappa, L234A L235A, V domains shown)
# VH: EVQLVESGGGLVQPGGSLRLSCAASGFTFSSYDMHWVRQATGKGLEWVSAIGTVGDTYYPGSVKGRFTISRENAKNSLYLQMNSLRAGDTAVYYCAREWNGMDVWGQGTTVTVSS
# VL: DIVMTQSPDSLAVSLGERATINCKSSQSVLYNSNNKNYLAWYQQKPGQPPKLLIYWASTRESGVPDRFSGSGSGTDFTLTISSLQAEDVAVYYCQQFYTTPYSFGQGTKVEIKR
# notes: Unconjugated antibody; also called Antibody 2; nectin-4 antibody Ab2
# B2: enfortumab (antibody, V domains shown)
# VH: EVQLVESGGGLVQPGGSLRLSCAASGFTFSSYNMNWVRQAPGKGLEWVSYISSSSSTIYYADSVKGRFTISRDNAKNSLSLQMNSLRDEDTAVYYCARAYYYGMDVWGQGTTVTVSS
# VL: DIQMTQSPSSVSASVGDRVTITCRASQGISGWLAWYQQKPGKAPKFLIYAASTLQSGVPSRFSGSGSGTDFTLTISSLQPEDFATYYCQQANSFPPTFGGGTKVEIKR
# B3: Ab2 ADC (Ab2 conjugated as in Formula XI, DAR of 8) (antibody, human IgG1, kappa, L234A L235A, V domains shown)
# VH: B1 VH
# VL: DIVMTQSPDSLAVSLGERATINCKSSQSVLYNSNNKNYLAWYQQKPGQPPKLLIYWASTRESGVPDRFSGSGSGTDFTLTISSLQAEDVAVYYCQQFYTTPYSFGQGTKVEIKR
# modifications: camptothecin analog linker-payload of Formula XI on cysteine thiols after full reduction, DAR of 8 per antibody; positions not given
# notes: Antibody-drug conjugate of Ab2; also called Ab2 (ADC column)
# B4: Ab8 ADC (Ab8 conjugated as in Formula XI, DAR of 8) (antibody, human IgG1, lambda, L234A L235A, V domains shown)
# VH: QVQLVQSGAEVKKPGASVKVSCKASGYTFTSYYIHWVRQAPGQGLEWMGIINPISGRTSSAQKFQGRVTMTRDTSTSTVYMELSSLRSEDTAVYYCAKEGVGGELLRAFDIWGQGTLVTVSS
# VL: QSVLTQPPSVSEAPRQRVTISCSGSSSNIGNNAVNWYQQLPGKAPKLLIYYDDLLPSGVSDRFSGSKSGTSASLAISGLQSEDEADYYCAAWDDSLNGFVFGGGTKLTVLG
# modifications: camptothecin analog linker-payload of Formula XI on cysteine thiols after full reduction, DAR of 8 per antibody; positions not given
# notes: Antibody-drug conjugate of Ab8; also called Ab8 (ADC column)
# B5: Ab7 ADC (Ab7 conjugated as in Formula XI, DAR of 8) (antibody, human IgG1, lambda, L234A L235A, V domains shown)
# VH: QVQLVQSGAEVKKPGASVKVSCKASGYTFTNYYMHWVRQAPGQGLEWMGIINPSSGSASYAQKFQGRVTMTRDTSTSTVYMELSSLRSEDTAVYYCAREGVGRDILQAFDIWGQGTLVTVSS
# VL: B4 VL with F99H
# modifications: camptothecin analog linker-payload of Formula XI on cysteine thiols after full reduction, DAR of 8 per antibody; positions not given
# notes: Antibody-drug conjugate of Ab7; also called Ab7 (ADC column)
# B6: Ab1a ADC (Ab1a conjugated as in Formula XI, DAR of 8) (antibody, human IgG1, kappa, L234A L235A, V domains shown)
# VH: QVQLVQSGAQVKKPGASVKVSCKASGYTFTGYYIHWVRQAPGQGLEWMGWINPNSGGTNYAQKFQGRVTMTRDTSISTAYMELSRLRSDDTAVYFCAREDWDFDYWGQGTLVTVSS
# VL: EIVLTQSPGTLSLSPGERATLSCRTSQSVSSSYLAWYQQKPGQAPRLLIYGASNRATDIPDRFSGSGSGTDFTLTINRLEPEDFAVYYCQQYGSSPITFGQGTRLEIKR
# modifications: camptothecin analog linker-payload of Formula XI on cysteine thiols after full reduction, DAR of 8 per antibody; positions not given
# notes: Antibody-drug conjugate of Ab1a; also called Ab1a (ADC column)
# B7: Ab5 ADC (Ab5 conjugated as in Formula XI, DAR of 8) (antibody, human IgG1, kappa, L234A L235A, V domains shown)
# VH: QVQLVQSGAEVKKPGASVKVSCKASGYTFTSYYVHWVRQAPGQGLEWMGIINPSIISTSYAQKFQARVTMTRDTSTSTVYMELSSLRSEDTAVYYCARGLNFDAFDIWGQGTLVTVSS
# VL: DIQLTQSPSFLSASVGDRVTITCRASQGISSYLAWYQQKPGKAPKLLIYAASTLQSGVPSRFSGSGSGTEFTLTISSLQPEDFATYYCQQLNNYPFTFGQGTKVEIKR
# modifications: camptothecin analog linker-payload of Formula XI on cysteine thiols after full reduction, DAR of 8 per antibody; positions not given
# notes: Antibody-drug conjugate of Ab5; also called Ab5 (ADC column)
# Target: T1, human nectin-4 on cells
# Experiment: flow cytometry, SUM190PT cells (high endogenous nectin-4)
Binder,% of enfortumab (Average Max MFI),Average Max MFI,EC50
B1,87.2%,920000 MFI,0.19 nM
B2,100%,1.1e+06 MFI,0.11 nM

# Target: T1, human nectin-4 on cells
# Experiment: cell-based or functional assay
Binder,"Cytotoxicity IC50, NCI H1781 cells","Cytotoxicity IC50, T24 Nectin-4 clone 108 cells"
B3,0.0473 nM,0.07 nM
B4,0.0572 nM,0.088 nM
B5,0.0543 nM,0.0801 nM
B6,0.0981 nM,0.0729 nM
B7,0.0657 nM,0.0994 nM

# Target: T2, recombinant HIS-tagged human nectin-4 …
# Experiment: SPR Biacore 8K+, ADC captured via anti-human Fc, nectin-4 analyte, 37 C;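 also: Nectin-4 injected over captured ADC at 0 to 600 nM for 2 min association, then 10 min dissociation, with a reference flow cell lacking ADC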
Binder,Kd,koff,kon
B3,21 nM,0.0214 s⁻¹,1.02e+06 M⁻¹ s⁻¹
B4,48.7 nM,0.0338 s⁻¹,694000 M⁻¹ s⁻¹
B7,3.94 nM,0.00346 s⁻¹,878000 M⁻¹ s⁻¹

# Target: T3, recombinant HIS-tagged cyno nectin-4 …
# Experiment: as above
Binder,Kd,koff,kon
B3,19.8 nM,0.02 s⁻¹,1.01e+06 M⁻¹ s⁻¹
B4,42.1 nM,0.0524 s⁻¹,1.25e+06 M⁻¹ s⁻¹
B5,39.2 nM,0.0464 s⁻¹,1.18e+06 M⁻¹ s⁻¹
B6,83.9 nM,0.026 s⁻¹,310000 M⁻¹ s⁻¹
B7,3.1 nM,0.0033 s⁻¹,1.06e+06 M⁻¹ s⁻¹

# Target: T4, recombinant HIS-tagged rat nectin-4 …
# Experiment: as above
Binder,Kd,koff,kon
B3,108 nM,0.0753 s⁻¹,695000 M⁻¹ s⁻¹
B4,34.4 nM,0.0165 s⁻¹,482000 M⁻¹ s⁻¹
B5,73.1 nM,0.0296 s⁻¹,404000 M⁻¹ s⁻¹
B6,180 nM,0.0453 s⁻¹,252000 M⁻¹ s⁻¹
B7,31.3 nM,0.0199 s⁻¹,636000 M⁻¹ s⁻¹

# Target: T5, human Nectin-4-eGFP on T24 cells (clone …)
# Experiment: cell-based or functional assay
Binder,% activity (max GFP signal loss compared to enfortumab mAb (100%)),EC50 (nM) of nectin-4-eGFP signal loss
B1,113%,1.43 nM
B3,132%,1.96 nM
B4,125%,2.48 nM
B5,126%,2.61 nM
B6,150%,2.3 nM
B7,112%,2.8 nM
B2,97%,2.13 nM

# Target: T2, recombinant HIS-tagged human nectin-4 …
# Experiment: SPR Biacore 8K+, ADC captured via anti-human Fc, nectin-4 analyte, 37 C; replicate 2 of 2
Binder,Kd,koff,kon
B5,37.6 nM,0.0212 s⁻¹,564000 M⁻¹ s⁻¹
B6,72.5 nM,0.0308 s⁻¹,424000 M⁻¹ s⁻¹

# Target: T2, recombinant HIS-tagged human nectin-4 …
# Experiment: SPR Biacore 8K+, ADC captured via anti-human Fc, nectin-4 analyte, 37 C; replicate 1 of 2
Binder,Kd,koff,kon
B5,41.2 nM,0.0243 s⁻¹,591000 M⁻¹ s⁻¹
B6,142 nM,0.0402 s⁻¹,283000 M⁻¹ s⁻¹

# Target: T1, human nectin-4 on cells
# Experiment: flow cytometry, differentiated normal human epidermal keratinocytes (HEKα)
row,Binder,EC50
1,B1,0.05 nM
2,B3,0.05 nM
3,B2,0.06 nM

# Target: T1, human nectin-4 on cells
# Experiment: flow cytometry, NCI-H1781 cells (low endogenous nectin-4)
Binder,% of enfortumab (Average Max MFI),Average Max MFI,EC50
B1,95.7%,87000 MFI,0.06 nM
B2,100%,91000 MFI,0.05 nM
